Results published in patent US20230002496A1 (STAIDSON BEIJING BIOPHARMACEUTICALS, published 2023).
Positions count from the first letter of the chain named.

B1: E35-scFv LN93E (scFv, V domains shown)
VH: QMQLVQSGAEVKKPGASVKVSCKVSGYTLTELSIHWVRQAPGKGLEWMGGFDPEDGETIYAQKFQGRVTMTGDTSTDTAYLELSSLRSEDTALYYCATGRYTSLATTYGFDYWGQGTLVTVSS
VL: EIVMTQSPATLSLSPGERATLSCRASQSVSSYLAWYQQKPGQAPRLLIYGASSRATGIPDRFSGSGSGTDFTLTISRLEPEDFAVYYCQQYDEWPYTFGQGTKLEIK
B2: E35-scFv HT30N (scFv, V domains shown)
VH: B1 VH with T30N
VL: B1 VL with E93N
B3: E35-scFv LN93H (scFv, V domains shown)
VH: B1 VH
VL: B1 VL with E93H
B4: E35-scFv HT30G (scFv, V domains shown)
VH: B1 VH with T30G
VL: B1 VL with E93N
B5: E35-scFv HT30V (scFv, V domains shown)
VH: B1 VH with T30V
VL: B1 VL with E93N
B6: E35-scFv LN93S (scFv, V domains shown)
VH: B1 VH
VL: B1 VL with E93S
B7: E35-scFv HE31K (scFv, V domains shown)
VH: B1 VH with E31K
VL: B1 VL with E93N
B8: E35-scFv HT30Q (scFv, V domains shown)
VH: B1 VH with T30Q
VL: B1 VL with E93N
B9: E35-scFv LN93P (scFv, V domains shown)
VH: B1 VH
VL: B1 VL with E93P
B10: E35-scFv LN93L (scFv, V domains shown)
VH: B1 VH
VL: B1 VL with E93L
B11: E35-scFv HE31D (scFv, V domains shown)
VH: B1 VH with E31D
VL: B1 VL with E93N
B12: E35-scFv HT30Y (scFv, V domains shown)
VH: B1 VH with T30Y
VL: B1 VL with E93N
B13: E35-scFv LN93A (scFv, V domains shown)
VH: B1 VH
VL: B1 VL with E93A
B14: E35-scFv HE31C (scFv, V domains shown)
VH: B1 VH with E31C
VL: B1 VL with E93N
B15: E35-scFv HE31R (scFv, V domains shown)
VH: B1 VH with E31R
VL: B1 VL with E93N
B16: E35-scFv LN93G (scFv, V domains shown)
VH: B1 VH
VL: B1 VL with E93G
B17: E35-scFv HT30D (scFv, V domains shown)
VH: B1 VH with T30D
VL: B1 VL with E93N
B18: E35-scFv HT30K (scFv, V domains shown)
VH: B1 VH with T30K
VL: B1 VL with E93N
B19: E35-scFv HT30E (scFv, V domains shown)
VH: B1 VH with T30E
VL: B1 VL with E93N
B20: E35-scFv HT30M (scFv, V domains shown)
VH: B1 VH with T30M
VL: B1 VL with E93N
B21: E35-scFv HE31V (scFv, V domains shown)
VH: B1 VH with E31V
VL: B1 VL with E93N
B22: E35-scFv LN93F (scFv, V domains shown)
VH: B1 VH
VL: B1 VL with E93F
B23: E35-scFv HT30P (scFv, V domains shown)
VH: B1 VH with T30P
VL: B1 VL with E93N
B24: E35-scFv HE31W (scFv, V domains shown)
VH: B1 VH with E31W
VL: B1 VL with E93N
B25: E35-scFv HE31M (scFv, V domains shown)
VH: B1 VH with E31M
VL: B1 VL with E93N
B26: E35-scFv HT30S (scFv, V domains shown)
VH: B1 VH with T30S
VL: B1 VL with E93N
B27: E35-scFv HE31A (scFv, V domains shown)
VH: B1 VH with E31A
VL: B1 VL with E93N
B28: E35-scFv LN93I (scFv, V domains shown)
VH: B1 VH
VL: B1 VL with E93I
B29: E35-scFv HE31P (scFv, V domains shown)
VH: B1 VH with E31P
VL: B1 VL with E93N
B30: E35-scFv HT30W (scFv, V domains shown)
VH: B1 VH with T30W
VL: B1 VL with E93N
B31: E35-scFv HE31F (scFv, V domains shown)
VH: B1 VH with E31F
VL: B1 VL with E93N
B32: E35-scFv LN93R (scFv, V domains shown)
VH: B1 VH
VL: B1 VL with E93R
B33: E35-scFv HE31G (scFv, V domains shown)
VH: B1 VH with E31G
VL: B1 VL with E93N
B34: E35-scFv HE31S (scFv, V domains shown)
VH: B1 VH with E31S
VL: B1 VL with E93N
B35: E35-scFv LN93Y (scFv, V domains shown)
VH: B1 VH
VL: B1 VL with E93Y
B36: E35-scFv HT30L (scFv, V domains shown)
VH: B1 VH with T30L
VL: B1 VL with E93N
B37: E35-scFv LN93K (scFv, V domains shown)
VH: B1 VH
VL: B1 VL with E93K
B38: E35-scFv LN93M (scFv, V domains shown)
VH: B1 VH
VL: B1 VL with E93M
B39: E35-scFv HE31Y (scFv, V domains shown)
VH: B1 VH with E31Y
VL: B1 VL with E93N
B40: E35-scFv LN93T (scFv, V domains shown)
VH: B1 VH
VL: B1 VL with E93T
B41: E35-scFv HT30A (scFv, V domains shown)
VH: B1 VH with T30A
VL: B1 VL with E93N

biological target: T1, human GM-CSFRα, full length on cells (human, UniProt P15509 23-400); test: cell-based or functional assay
T1 sequence: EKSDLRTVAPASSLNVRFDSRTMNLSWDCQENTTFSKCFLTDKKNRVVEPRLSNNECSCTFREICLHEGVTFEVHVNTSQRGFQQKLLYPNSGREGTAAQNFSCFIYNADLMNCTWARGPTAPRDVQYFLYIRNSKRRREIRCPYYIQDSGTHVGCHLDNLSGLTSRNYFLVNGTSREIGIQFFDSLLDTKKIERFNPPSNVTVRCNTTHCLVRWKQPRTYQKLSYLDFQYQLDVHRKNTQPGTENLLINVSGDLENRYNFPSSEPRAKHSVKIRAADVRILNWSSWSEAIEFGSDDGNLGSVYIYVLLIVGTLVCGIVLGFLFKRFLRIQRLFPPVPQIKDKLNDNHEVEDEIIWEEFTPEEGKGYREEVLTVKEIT

First: B1
Second: B2
The “IC50, TF-1 cell proliferation” value of the first is 2.2-fold lower: 0.081 µg/mL for the first, 0.178 µg/mL for the second.

Going from B3 to B4, the “IC50, TF-1 cell proliferation” value falls from 0.45 µg/mL to 0.199 µg/mL (2.3-fold).

Going from B5 to B6, the “IC50, TF-1 cell proliferation” value rises from 0.158 µg/mL to 0.3 µg/mL (1.9-fold).

B7 and B8 are within 1.5-fold of each other in “IC50, TF-1 cell proliferation” value: 0.23 µg/mL for the first, 0.192 µg/mL for the second.

Going from B9 to B10, the “IC50, TF-1 cell proliferation” value falls from 0.66 µg/mL to 0.33 µg/mL (2-fold).

B11 and B12 are within 1.5-fold of each other in “IC50, TF-1 cell proliferation” value: 0.13 µg/mL for the first, 0.142 µg/mL for the second.

Going from B13 to B14, the “IC50, TF-1 cell proliferation” value rises from 0.21 µg/mL to 0.36 µg/mL (1.7-fold).

First: B15
Second: B16
The “IC50, TF-1 cell proliferation” value of the first is 1.5-fold higher: 0.31 µg/mL for the first, 0.205 µg/mL for the second.

First: B17
Second: B18
The “IC50, TF-1 cell proliferation” value of the first is 2.5-fold lower: 0.132 µg/mL for the first, 0.325 µg/mL for the second.

B19 and B20 are within 1.5-fold of each other in “IC50, TF-1 cell proliferation” value: 0.132 µg/mL for the first, 0.174 µg/mL for the second.

B21 and B22 are within 1.5-fold of each other in “IC50, TF-1 cell proliferation” value: 0.22 µg/mL for the first, 0.3 µg/mL for the second.

Going from B23 to B24, the “IC50, TF-1 cell proliferation” value rises from 0.126 µg/mL to 0.26 µg/mL (2.1-fold).

Going from B25 to B26, the “IC50, TF-1 cell proliferation” value rises from 0.13 µg/mL to 0.213 µg/mL (1.6-fold).

Going from B27 to B28, the “IC50, TF-1 cell proliferation” value rises from 0.21 µg/mL to 0.33 µg/mL (1.6-fold).

B29 and B30 are within 1.5-fold of each other in “IC50, TF-1 cell proliferation” value: 0.17 µg/mL for the first, 0.151 µg/mL for the second.

First: B31
Second: B32
The “IC50, TF-1 cell proliferation” value of the first is 3.3-fold lower: 0.18 µg/mL for the first, 0.6 µg/mL for the second.

B33 and B34 are within 1.5-fold of each other in “IC50, TF-1 cell proliferation” value: 0.116 µg/mL for the first, 0.14 µg/mL for the second.

B35 and B36 are within 1.5-fold of each other in “IC50, TF-1 cell proliferation” value: 0.156 µg/mL for the first, 0.181 µg/mL for the second.

Going from B37 to B38, the “IC50, TF-1 cell proliferation” value falls from 0.78 µg/mL to 0.27 µg/mL (2.9-fold).

B39 and B40 are within 1.5-fold of each other in “IC50, TF-1 cell proliferation” value: 0.2 µg/mL for the first, 0.14 µg/mL for the second.

With B41 the “IC50, TF-1 cell proliferation” value was 0.215 µg/mL.
